In this test the target is biotinylated recombinant SARS-CoV-2 wild type spike RBD (SARS-CoV-2, UniProt P0DTC2 319-541). Put plainly: FACS.

B1: REGN10987 scFv displayed on the surface of HEK 293T cells (scFv, V domains shown)
VH: QVQLVESGGGVVQPGRSLRLSCAASGFTFSNYAMYWVRQAPGKGLEWVAVISYDGSNKYYADSVKGRFTISRDNSKNTLYLQMNSLRTEDTAVYYCASGSDYGDYLLVYWGQGTLVTVSS
VL: QSALTQPASVSGSPGQSITISCTGTSSDVGGYNYVSWYQQHPGKAPKLMIYDVSKRPSGVSNRFSGSKSGNTASLTISGLQSEDEADYYCNSLTSISTWVFGGGTKLTVL
Consider B1, for which the Kd turned out to be 8.33 nM.

For the origin of these results see PMC9891525 (2023).
